This data set can be described thus: soluble on expression in E. coli; label from the status in PepcDB or PDB records.
In the case of “MGIFETMSQVRRLPQALAAAVATPPALAGSGTLRGLIGLDDSLGEAVTTRAEALTIPAVLRARNLLSTTVARTPLVCDGTLPPFVPVAAPPGAATMQTPFHRMLATADDLLFNGVACWALDRDESGTCIGAIHIPLDTWQIEENTVRVNGKAVDPMEVCIFVGIHGGLLTHASETFTDARNLVRAAARVAQNPAALIELRQTNNAQLSPDDVDRIINGYVAARRGRNSGVGFSSSGLEVHEHEMAKENLLIEGRNAAAVDVARAMNVPAAFIDATVGGTSLSYQNAASRMIELVTFGVEPLMSAIEARLNQPDMHADHLANPLKFDPAALLDAIPTTPTIGAQPHGENS”, the “soluble on expression in E. coli” value was “not soluble”.

Regarding “MIKKDYAQIKETLYTETLENGLKVYLLPKNDFQKTYGLFTTDYGSIDNTFVPIGQEEMIEVPDGIAHFLEHKMFEKEDGDVFQKFGQQGASANAFTSFTKTSYLFSTTDQVTQNLETLLDFVQSPYFTKETVEKEKGIIGQEIQMYLDDPNWRLFFGILGNLYPKHPLHIDIAGTVASIAEITAEDLYTCYNTFYHPSNMTLFVVGKMDPEALMAFIRENQAAKEFPAAQPIRRHFPEETAADIVKESAIEMTVTRAKVLVGLKGLDEVPTTGRDLMKYQVTVNLLLQLLFGNTSQNYLALYDEGLLDDSFSYDFNLDRSFHFADIGGDSEQPEVLAERIEAILLSATTSPELTEENLSLLKKKMIGKYFQSLNSLEYIANQFSQSLFGETTLFDKIEVIESIQLADVRQVAETFIREEGLSRFYMYPKGETEQ”, the “soluble on expression in E. coli” value is listed as “not soluble”.

Take “REKGIVEPSCGVTANAIMKLFLDKDGFSYCFENEQTLSLEQLQERLSCMPECKSFVLRVNDGALGHAYIVDIPKGENSCRPAFLYQSDLGEGVTRKLRFEDWMTHKALTPILLDDICNYFSCMSQNKTDLEQIATLFDIDGNVKMLRKENIQYQKHDNFSFQLFEYDTDNIEKNIEIIKSLCSGAAALEHHHHHH”: the “soluble on expression in E. coli” value is reported as “soluble”.

Regarding “MGSDKIHHHHHHLASHHSLLNHQRHFERIGPDYRNGDSVSFLDIKHTFGLQHIRVGKWVNREESALAANLIFDSLADLANILAVPPELIGLRGSLRFAFGHGGQKGVQAHYSPAYRELALAKNAGAGALAHEFWHAFDHYIADKMFIDDSILDPYLSSLILSEQTTNTTRTNFSRANLFACASDNWLADKSIIAHPLNKKLSSLFKVTLLSANGQEPHDYVRRSIALDKQQRSHYFAKPTEMMARAFESCIEMYSQDYANISNPYLVNSTIDSPLAKHGAYPDAQHCREIYQAMMEYFEPLGLAFDKQNGQK”, the “soluble on expression in E. coli” value is recorded as “not soluble”.

Turning to “MGHHHHHHSHANCAENEEGCTPLHLACRKGDGEILVELVQYCHTQMDVTDYKGETVFHYAVQGDNSQVLQLLGRNAVAGLNQVNNQGLTPLHLACQLGKQEMVRVLLLCNARCNIMGPNGYPIHSAMKFSQKGCAEMIISMDSSQIHSKDPRYGASPLHWAKNAEMARMLLKRGCNVNSTSSAGNTALHVAVMRNRFDCAIVLLTHGANADARGEHGNTPLHLAMSKDNVEMIKALIVFGAEVDTPNDFGETPTFLASKIGRLVTRKAILTLLRTVGAEYCFPPIHGVPAEQGSAA”, the “soluble on expression in E. coli” value is reported as “not soluble”.

For the sequence “MQIVKKEKFILKEYTFENGRTIPVQMGYETYGTLNRERSNVILICHYFSATSHAAGKYTAHDEESGWWDGLIGPGKAIDTNQYFVICTDNLCNVQVKNPHVITTGPKSINPKTGDEYAMDFPVFTFLDVARMQCELIKDMGIARLHAVMGPSAGGMIAQQWAVHYPHMVERMIGVITNPQNPIITSVNVAQNAIEAIRLDPSWKGGKYGEEQPMKGLQLANRMMFMNAFDEHFYETTYPRNSIEVEPYEKVSSLTSFEKEINKLTYRSIELVDANSWMYTAKAVLLHDIAHGFSSLEEALSNVEANVLMIPCKQDLLQPSRYNYKMVDLLQKQGKYAEVYEIESINGHMAGVFDIHLFEKKVYEFLNRKVSSFV”, the “soluble on expression in E. coli” value is “not soluble”.

With “MGSDKIHHHHHHMCVEGLTSSGSVNWHDAWLTLSDGVKLVARLWIPKGEGPWPALVMRQPYGRALASTVTYIHPGWWASHGYLVVVQDVRGQGDSEGHFNGFLQEASDTSQTHAWVRELPECNGRLGTYGFSYQGLTQLLAEPGTPPPDCLAPAMAGVDERNHWSCEGGAHWWHLGLAWGLQLAALQARRCGNWEAWRELRRSLEDDSYLYEGPALLKRHDPDGMSFRWLHQANQNDHGWVVHKPLDSWLRQPMLLLGGWWDPHLNGLLDLYQRSSQVGGSPELHIGPATHLQWWPDAQQLQLEFFDRHLKSSKALTNSRPHGRIWNITSCSWQTFASPTQTTTSANASWSLVSGGMACLDPSEGTLHQNKKGGGVVYVVHDPWRPVQSVGGHLSPKPGVAERSALDQRADVATFTSTALQEPLQLNGIPLLQLTVQSDQPGFDLCVALSIVNCNHSEVKQLSTGFLRVQGEQALRMLPRKVKLQPILADLERGEHLRLSLAGAAWPAIGVNPGHDRHPCGPPGPHCQVVTMTLQLNGSKLRFLSWNSGKIDFDLPQEF”, the “soluble on expression in E. coli” value was “not soluble”.

Turning to “MSSQELVTLNVGGKIFTTRFSTIKQFPASRLARMLDGRDQEFKMVGGQIFVDRDGDLFSFILDFLRTHQLLLPTEFSDYLRLQREALFYELRSLVDLLNPYLLQPRPALVEVHFLSRNTQAFFRVFGSCSKTIEMLTGRITVFTEQPSAPTWNGNFFPPQMTLLPLPPQRPSYHDLVFQCGSDSTTDNQTGVRYVSIKPDNRKLANGTNVLGLLIDTLLKEGFHLVSTRTVSSEDKTECYSFERIKSPEVLITNETPKPETIIIPEQSQIKK”, the “soluble on expression in E. coli” value is reported as “soluble”.

Take “MSETTQGPTHFRLMSKLKAIGPYLREPQSQEGRYYFDCLSVCVDDKKSPEKREFWGWWMDLESIEGGFTAKYHIGKYNKEGKWVSEALPQKVVEEVYFTQSTFHQKLIDTLAEHFKLEVEYHTESFDFA”: the “soluble on expression in E. coli” value is “not soluble”.

With “FRFCFKQMNKSQHELVLGWIHQPHINEWLHGDGLSNTIKDLHEFLNDGKPWATHWIAYDNEIPFAYLITSEIEKSEEYPDGAVTLDLFICRLDYIGKGLSVQMIHEFILSQFSDTKIVLINPEISNERAVHVYKKAGFEIIGEFIASWHPVPHYKMKLCI”, the “soluble on expression in E. coli” value is “not soluble”.

Take “MSEENITNVQENASDYNEDQIQVLEGLEAVRKRPGMYIGSTSQRGLHHLVWEIVDNAIDEALAGFCTEIEITIEADNSITVRDNGRGIPTGINEKIGRPTVEVIFTVLHAGGKFGGGGYKVSGGLHGVGASVVNALSTSLEVYVHREGQKYYQRFERGDVVMDMEEQGETDYRGTIVHFTPDPQIFTETTEFDFDTLRTRTRELAFLNRGLTISIEDKREEHKVRKDFHYEGGIRSYVEHLNKAKDVIHEPPIYLEGERDDIMVEISMQYNTGFSSNIISFANNIHTYEGGTHESGFKTALTRVINDYARRNKLFKDSDDNLSGEDVREGLTAIISIKHPDPQFEGQTKTKLGNSEARSITDKLFSEALNKFMMENPDVAKKIVEKGVVASRARLAAKRAREVARKSSGLEISSLPGKLADCSSRNPEISELYIVEGDSAGGSAKQGRDRLFQAILPIRGKILNVEKARLDRILANEEIRTIFTAMGTGFGGDFDVSKSRYHKLIIMTDADVDGAHIRTLLLTLFYRYMRPLLDAGYIYIAQPPLYQIKHGKQIEYVYSDGQLEDYLASLDGDTKYSIQRYKGLGEMNPEQLWDTTMNPEHRTLLQVNIKDAIDADETFEMLMGDRVEPRRKFIEDNAQYVKNLDV”: the “soluble on expression in E. coli” value is “not soluble”.

“MPVVNIPIKILGQNQSHSRSNSSSSVDNDRNQPPQQPPQPQPQQQSQQQYQQAPNVNTNMHHSNGFSPNFPSRSPIPDFPSFSSGFPNDSEWSSNFPSFPNFPSGFSNGSSNFPDFPRFGRDGGLSPNPPMQGYRRSPTPTSTQSPTSTLRRNSQQNQAPPQYSQQQPQQAQQRQTTPPSTKASSRPPSRTREPKEPEVPERPAVIPLPYEKKEKPLEKKGSRDSGKGDENLEENIAKITIGKNNCELCPEQETDGDPSPLTSPITEGKPKRGKKLQRNQSVVDFNAKTIVTLDKIELQVEQLRKKAAELEMEKEQILRSLGEISVHNCMFKLEECDREEIEAITDRLTKRTKTVQVVVETPRNEEQKKALEDATLMIDEVGEMMHSNIEKAKLCLQTYMNACSYEETAGATCQNFLKIIIQCAADDQKRIKRRLENLMSQIENAERTKADLMDDQSE”: the “soluble on expression in E. coli” value is listed as “not soluble”.

In the case of “MGSDKIHHHHHHMIKVEDKSRCCGCEACVSSCPLQCIELVKDKEGFMYPQVDTARCIDCGKCEKACPELVEAKGSGGVTVYAAVNPDKEARLASSSGGIFTLLAESVLAENGVVFGARFDKDWNVIHDYTETKEGLEAFRGSKYVQSRTGETFKQAEQFLKEGRKVLFSGTPCQIMGLKRYLHKEYDNLLAVDFVCHGVPSPLVWRKYIEETLVRQDEKIQFRPTLNHLFLDEMPLIEGISFRNKCLGWKKYSFALILSKVTTAGEKNTVSLSRIFYDNAYMKAFLANLSLRPACYRCPAKSGKSGSDITLGDFWGIEKIAPELDDDRGCSLLIINNPKVRDELRKKGCLLAEFPISEILPYNLSTAYSVSMPNNRKFFWFMFDKAGFHKALMLATSTTFPIRALRKLFRLI”, the “soluble on expression in E. coli” value was “not soluble”.

In the case of “MAAEGDFLMRYRAVSNKLKKRFLRKPNVAEASEQFGQLAKELKQQDCPQYAAFCNLAMARCEQTLFNAPGEALALTDAARLFLASEQETRALRAPGFDENMQAAMNCYSFAIKVYIEMNQPVMAARLSLELGNALKEMNRPGEAIIHFQRAAELQIQMPIEALLSLWEMASCKILTRDYDGALAVLSEMQHMCQERGLQLPGTNTPVGAFMDIIAKCEISRVLLLMLLEPPPQKLLPEHAQTLERYAWESFDSHSQMACQEKDTESLKALQTELW”, the “soluble on expression in E. coli” value was “not soluble”.

For “MSLSDDRLSLQTFLTRVTAVRLKLQQVVTAPDPEAMIQVLAQTVFQGKGADLTDIQAYGNLIAASLGADWGPAANTLFVRPLDQAWQQILLPSSAGLNRAWQRAIVDEWQGAFSGRYPFAATSSDASLPMLGQMIRADSGRIEQFLAQQLMGLLRKEGSRWVADSRQSQGLRFNPDFLTAINQLSQLADVLYTDGGMGVSFELQGKPVRDVVQTTFVLNGEKHHYFNQRESWQRFRWPGQGDHPGISEGHHHHHH”, the “soluble on expression in E. coli” value is on record as “soluble”.

In the case of “MGSDKIHHHHHHMYLKELSMMPGVSGDEGKVRDFIKSKIEGLVDNLYTDVLGNLIALKRGRDSSKKLLVSAHMDEVGFVVSKIEKDGKVSFLPVGGVDPRILPGKVVQVKNLKGVIGYRPIHLQRDEENTPPRFENLRIDFGFSSADEAKKYVSIGDYVSFVSDYIEKNGRAVGKAFDDRAGCSVLIDVLESGVSPAYDTYFVFTVQEETGLRGSAVVVEQLKPTCAIVVETTTAGDNPELEERKWATHLGDGPAITFYHRGYVIPKEIFQTIVDTAKNNDIPFQMKRRTAGGTDAGRYARTAYGVPAGVISTPARYIHSPNSIIDLNDYENTKKLIKVLVEEGKIVEVVS”, the “soluble on expression in E. coli” value is on record as “not soluble”.

As to “MKSNPKYFLMNDVERQSKYSPKYVPNNSLKERILEFLDYYIAPLKLYLLSYPMPDCLWDNRKLRLKASGVQVTPSSEPVHIDDRLIHISQKQPSE”, the “soluble on expression in E. coli” value is given as “not soluble”.

In the case of “MAHHHHHHSLRLKEQSLQVTTKTGKESQKKTQTTAKSTITVDIKGAVKHEGVYTLPIDSRINDVIEKAGGFSEKADRKSVNLAQKLQDEAVIYVAAIGENISVIRDSQEGKTSQADKANTKETSVKGKVNLNTATLADLQTISGIGEKKAQDILDYREANGGFKSVDDLKNISGIGDKTFEKLKDLVSVDEG”, the “soluble on expression in E. coli” value is given as “soluble”.

Regarding “MCAHRPATAPDFLLSRSHGSIRTQGAVETFSDPGKAVEALRSGRVELVVGALAFRRDHACALTVPRSVIREEGPLEPHAYYRQGPGSIVNAQVEKLVPSLDKHHARVEAAINTIKSTSLKKVVLARAVDMTFSPAVDPRLIAARLIDLSRNRDGFIADLTPAGEDFAGAM”, the “soluble on expression in E. coli” value is “not soluble”.

These data come from the DeepSol protein solubility set.
